The values below come from PMC6197226, “ZZ-dependent regulation of p62/SQSTM1 in autophagy” (Nature Communications, 2018).

In this test the target is T1, p62 ZZ domain (aa 115-190) (human, UniProt Q13501 115-190).
T1 construct: p62/SQSTM1 ZZ domain, human, aa 115-190; uniformly 15N-labeled for NMR; unlabeled for MST; also called p62_(ZZ (115-190)); source: E. coli BL21 (DE3) RIL, purified (glutathione Sepharose, size exclusion)
The test is described as follows: MST; displacement assay: unlabeled peptide added to a preformed complex of 40 uM ZZ (aa 115-190) and 80 nM FAM-labeled peptide; Ki from IC50, called Kd in the text; 10 mM HEPES pH 7.4, 150 mM NaCl, 1 mM TCEP; triplicates. The following applies: both partners purified.

B1: K100EKKECRRDHR110 (p62_(100-110)) peptide (peptide)
peptide: KEKKECRRDHR
notes: p62/SQSTM1 regulatory linker between PB1 and ZZ, aa 100-110; also called RL peptide; RL; source: synthetic peptide (SynPeptide or KE BioChem)
In the case of B1, the Kd is 320 µM.
